Reference: patent US20260274948A1 (AUTOLUS, published 2026)
Numbering of substitutions follows the chain as printed.

B1: Jovi Hum 8 (antibody, V domains shown)
VH: QVQLVQSGAEVKKPGASVKVSCKASGYTFTGYVMHWVRQAPGQGLEWMGFINPYNDDIQSNERFRGRVTMTRDTSISTAYMELSRLRSDDTAVYYCARGAGYNFDGAYRFFDFWGQGTMVTVSS
VL: DIVMTQSPLSLPVTPGEPASISCRSSQRLVHSNGNTYLHWYLQKPGQSPRLLIYRVSNRFPGVPDRFSGSGSGTDFTLKISRVEAEDVGVYYCSQSTHVPYTFGQGTKLEIK
notes: H-AF 1 carries no back-mutation (Q3, V20, M48, R71, T73), i.e. the plain H-AF062256 graft; also called H-AF 1; H-AF1, 3aaz
B2: Jovi Hum 17 (antibody, V domains shown)
VH: B1 VH with R72S
VL: B1 VL
notes: also called H-AF 3
B3: Jovi Hum 16 (antibody, V domains shown)
VH: B1 VH with T74K
VL: B1 VL
notes: also called H-AF 2
B4: Jovi Hum 27 (antibody, V domains shown)
VH: B1 VH with V20M, M48I
VL: B1 VL
notes: also called H-AF 13
B5: Jovi Hum 20 (antibody, V domains shown)
VH: B1 VH with M48I, T74K
VL: B1 VL
notes: also called H-AF 6
B6: Jovi Hum 18 (antibody, V domains shown)
VH: B1 VH with R72S, T74K
VL: B1 VL
notes: also called H-AF 4
B7: Jovi Hum 26 (antibody, V domains shown)
VH: B1 VH with V20M, R72S, T74K
VL: B1 VL
notes: also called H-AF 12
B8: Jovi Hum 19 (antibody, V domains shown)
VH: B1 VH with M48I
VL: B1 VL
notes: also called H-AF 5

Each binder was assayed against T1, TRBC2 (T-cell receptor beta constant region 2) (human, UniProt A0A5B9 1-129, limits assumed) (assay: ELISA).
T1 construct: also called TCR beta-constant region 2
T1 sequence (A0A5B9 1-129 limits assumed): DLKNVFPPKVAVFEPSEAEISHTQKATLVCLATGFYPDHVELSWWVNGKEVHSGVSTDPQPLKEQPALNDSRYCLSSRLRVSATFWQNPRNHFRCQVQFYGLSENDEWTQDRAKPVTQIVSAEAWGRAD

| binding result | Binder |
| --- | --- |
| no binding | B1 |
| no binding | B2 |
| no binding | B3 |
| no binding | B4 |
| no binding | B5 |
| no binding | B6 |
| no binding | B7 |
| no binding | B8 |
